Test results reported in paper PMC4114212 (Science signaling, 2012).
Read-outs that look alike come from different tables or passages of the source.

Assays:
[1] = biological target: T1, Cardif peptide (residues 138 to 158) used for cocrystallization with TRAF3; assay: crystal structure
T1 peptide: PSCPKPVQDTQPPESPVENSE

crystal structure [2] = biological target: the molecule itself; assay: crystal structure
crystal structure [3] = biological target: the molecule itself; assay: crystal structure; remark: listed apart in the source
[4] = biological target: T2, TRAF domain of mouse TRAF3 (residues 376 through the C terminus), wild type (mouse, UniProt Q60803 376-567); assay: pull-down
T2 sequence (looked up): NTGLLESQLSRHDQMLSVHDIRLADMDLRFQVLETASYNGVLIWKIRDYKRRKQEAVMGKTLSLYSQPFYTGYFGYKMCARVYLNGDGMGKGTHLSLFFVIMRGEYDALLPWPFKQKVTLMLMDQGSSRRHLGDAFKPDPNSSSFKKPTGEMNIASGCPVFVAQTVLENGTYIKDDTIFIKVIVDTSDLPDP

B1: recombinant TRAF domain of TRAF3 (residues 376 to 565), shortened by trypsin for crystallisation (domain or fragment, mouse, UniProt Q60803 376-565, looked up)
chain: NTGLLESQLSRHDQMLSVHDIRLADMDLRFQVLETASYNGVLIWKIRDYKRRKQEAVMGKTLSLYSQPFYTGYFGYKMCARVYLNGDGMGKGTHLSLFFVIMRGEYDALLPWPFKQKVTLMLMDQGSSRRHLGDAFKPDPNSSSFKKPTGEMNIASGCPVFVAQTVLENGTYIKDDTIFIKVIVDTSDLP
stoichiometry N [1]: 1 | stoichiometry N (crystal structure [2]): 3

B2: TRAF domain of TRAF5, crystallised construct (residues 381 through the C-terminal end) (domain or fragment, mouse, UniProt P70191 381-558, looked up)
chain: NIHKAQLNKNEERFKQLEGACYSGKLIWKVTDYRVKKREAVEGHTVSVFSQPFYTSRCGYRLCARAYLNGDGSGKGTHLSLYFVVMRGEFDSLLQWPFRQRVTLMLLDQSGKKNHIVETFKADPNSSSFKRPDGEMNIASGCPRFVSHSTLENSKNTYIKDDTLFLKVAVDLTDLEDL
stoichiometry N (crystal structure [3]): 3

B3: GST-tagged Cardif peptide, residues 138 to 153 (encompasses T2BM) (peptide)
chain: PSCPKPVQDTQPPESP
binding result [4]: binds
